Data reported in the domain aggregation screens of Martell et al. (2025).

Assay: soluble fraction after stress (log2 fold change); higher = more stays soluble; pooled small domains, quantitative proteomics
Details: stress: pH 4
Summary of the method: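 Custom libraries of small protein domains were pooled and measured with high-throughput quantitative proteomics after pH 4 stress. The read-out is the fold change in the amount of each domain that stays soluble after the acid stress, taken as a measure of aggregation propensity. Fold changes are on a log2 scale, and higher values mean more of the domain stayed soluble.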

| Sequence | soluble fraction (log2) |
| --- | --- |
| HMLAGVDTLADRELEVFQMLGRGKSTKEIAQVLNLGESTVETYRARIKEKLQLRSAAELYLRAGQWVRDHG | -0.426 |
| HMLAIKKGGIFAILGPNGSGKSTFSKVLAGHPAYTVVDGDIFFKGLSILDLEPEERSHLGIFLAFQ | -0.151 |
| HMLAKRYLVYGSGSLNSAYPDTKNIAYGIDSGKGFFLVGILTENEASKLKLKGYYVIEDFPLDFH | -0.921 |
| HMLAPLAEMRGDTLDRLEKAVLELFSSRDFHEVSLQDVARRANVSLQTIYKYFGSKEALVYTMLDTLLGR | -0.87 |
| HMLAQVSDEGPIRAMVEAVMARSTQQLEDYKNGKVKLRQYFFGEVMKAAKGKANPTVINKLLDEMLPETL | 0.0418 |
| HMLAQYPGQVFSKEQIYNQVWKEPYYGVEDNVMSLIRRIRKKIEPDPSRPIYILTVWGIGYKFNN | 0.0406 |
| HMLARFSGIALNTWTQADVERTFGPPMLVERVARFDGDIWTYRFMDDYEPRMAHIHIDRAGTVRQLVF | -1.74 |
| HMLAVEKIEFVGNERIAAADLESALSALYDRPMTTISDDEIAKLLSGFSLIETFTSQAEPPHTLRVNIRE | -0.452 |
| HMLDEKFLSELMLALLRNHRRGLRAEVLLHKVRSNMELDGYKSLLVGVGRMEMWELAREIIDFVKAEG | -2.07 |
| HMLDGFEVGMTVMRKPGTETGFTGWPPFADKDEFPVIERIDTSDSTLLLRFNDTSWWINASLVEPSDV | -0.729 |
| HMLDIPEVGQAVQVRGRLGTVFSVAPYDGREGRLHLVTVDYLDDARPPENDEILWEIESGARILG | -0.763 |
| HMLDLNEVEFYAIENQLKENLKIDSKRFYELVPLIKGYQEDDIIQVLRWLIDNNRIIRHKDESLTWHS | -1.02 |
| HMLDLSEEEQKIVSILEKQGNLQINSLVVEADIPVHKINAILFELEMKGVVRVLALSLIHISEP | -0.628 |
| HMLDPVLQREKDESFTDYHIRLFKNKDTYHIDTKTIATLLNKDQGTNYDESKWRKDFKQYERWNDYIMSKN | -0.155 |
| HMLDPYNVLGVPRDAGMDEIKKAYRKLSRTYHPDANIDNPNKAQAEEKFKQIQEAYQQIVKERTE | -0.152 |
| HMLDQAVPVFETPKYAVSYIQNRLVEMKAASPEEAASRFYESISESERRGLFEALLIKEAEES | -0.821 |
| HMLDQGTQSRYQIMDGVRALITGDWSSHGAGLVRELSQEVARTSGLTATSERTFFVPFSALS | -0.111 |
| HMLDSDARRRGLIEYLSLNGYATMRQLAGEFDVSINTIQRDITYLARYYPLETAYGRYGGGVYFEQNWQ | -1.04 |
| HMLDSGNPILPYKLSLLANVDIRTVRNAISAGELVAFKSEFDGEVYVENGSARRWLHGRRGFKPTLK | -0.772 |
| HMLDSNILTLIKELKIRHHFTATQTHQLEKVIQQAHALGLDNSEIRSLANSSPSAKSLINDLNQKLEPLRL | ≥ 0.43 |
| HMLDTELEANLRSQRDQKLVEELDPIVTNPLRWAELTSDKQTEWTQYRTDLLNVPQQSGFPTNVTWPEKP | -0.401 |
| HMLDVFSAEQVADVLSVSKRNLETWANNGKLIPDFIHGEVALYSKKQLEQFEQFQRFFNSSWDAERLIQP | -1.24 |
| HMLDVGDQLVKKLKDNDSLDFHFVNSKEANKGLKDGDYYMVITIPSNFSKNATTLLDKNPKKMVLNYTTNP | 0.13 |
| HMLEAKQIQDNWESLIKLIEDNFTGERKENLLKMYTHFQDRMMFAPASSKEHFHNAFPGGYVEHVL | -0.942 |
| HMLEDIDNSIKKEIILEHYDKMLEFHGDYGAIIFRKLLHAYSKGYTGANEFRDLVNQISDKNIMRDLIESF | -1.17 |
| HMLEEIIDVKRFLVENVRGVSEKTALAILSEFGDKTMDVLRNSPNELYRIKGMSGKRIEVIKDAIANATAS | -1.33 |
| HMLEINTIIGNNLKKIRQEKKLTLDELAGITGVSKGMLSQIEKGTTNPTINTIWKISNGLNVPYTYLLEDD | -0.0827 |
| HMLENIVFTNKFKNKRLDVLLVDMKLVSSRQKAVSLIMRGNVFVEEERADKPGKIIKLNQTISLKK | ≥ 0.43 |
| HMLERPLKLKSHYVSAINEKVAVQFQAGEERKSIMGTLTEVNQDTIVIDDRGSVTEIPFKSIIRAKTVF | -0.163 |
| HMLESPVEAIIRQIKQLITNGKLKPGDRLPAERLLAENFGVGRGYVREAIMKLEFFGLLKTSPQSGTYVAG | -0.257 |
